Assay results reported in article PMC4858744, “Bifunctional CYP81AA proteins catalyse identical hydroxylations but alternative regioselective phenol couplings in plant xanthone biosynthesis” (Nature Communications, 2016).

Test system: T1, NC(=O)C1=CN([C@@H]2O[C@H](COP(=O)(O)OP(=O)(O)OC[C@H]3O[C@@H](n4cnc5c(N)ncnc54)[C@H](OP(=O)(O)O)[C@@H]3O)[C@@H](O)[C@H]2O)C=CC1
T1 construct: full-length, 712 residues, pESC-URA MCS2, yeast (S. cerevisiae INVSc1) microsomes
Assay: cytochrome c reduction, yeast microsomes
Assay type: biochemical, Hypericum calycinum
Settings: electron acceptor cytochrome c

HcCPR2 (Hypericum calycinum), sequence (chain, as listed by the source): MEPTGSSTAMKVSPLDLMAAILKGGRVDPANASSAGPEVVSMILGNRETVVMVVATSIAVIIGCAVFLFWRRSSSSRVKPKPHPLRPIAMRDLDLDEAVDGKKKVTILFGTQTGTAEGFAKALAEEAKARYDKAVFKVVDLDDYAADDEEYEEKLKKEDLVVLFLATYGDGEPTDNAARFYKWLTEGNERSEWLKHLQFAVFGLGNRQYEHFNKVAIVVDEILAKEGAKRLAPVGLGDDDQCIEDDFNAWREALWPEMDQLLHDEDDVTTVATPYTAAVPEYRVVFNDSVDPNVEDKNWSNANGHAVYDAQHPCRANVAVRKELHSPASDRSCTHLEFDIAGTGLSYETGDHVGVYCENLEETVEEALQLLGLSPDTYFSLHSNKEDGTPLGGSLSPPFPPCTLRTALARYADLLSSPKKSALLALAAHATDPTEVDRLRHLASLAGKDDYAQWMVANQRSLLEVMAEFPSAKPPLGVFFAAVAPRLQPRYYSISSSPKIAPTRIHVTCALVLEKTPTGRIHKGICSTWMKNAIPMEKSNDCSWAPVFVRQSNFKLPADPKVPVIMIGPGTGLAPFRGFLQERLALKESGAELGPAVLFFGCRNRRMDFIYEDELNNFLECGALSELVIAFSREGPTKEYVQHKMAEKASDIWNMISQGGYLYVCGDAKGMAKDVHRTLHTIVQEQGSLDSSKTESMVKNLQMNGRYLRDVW

Substance HcCPR2 (Hypericum calycinum) has a Km of 43.9 ± 6.5 µM.
